In patent US20190375786A1, “STABLE PEPTIDES AND METHODS OF USE THEREOF” (Fred Hutchinson Cancer Research Center, priority 2016, published 2019):

Assays:
[1] = Resistance to reduction by DTT, RP-HPLC; assay type: physicochemical; settings: 10 mM DTT; HPLC vs non-reduced peptide
Method in brief: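 Peptide (12.5 μg from a 2 mg/ml stock, or 0.015 mM final in PBS) was held 30 min at room temperature with or without 10 mM DTT. Reduced and non-reduced forms were compared by C-18 RP-HPLC using a 5–45% acetonitrile/0.1% TFA gradient over 10 min, with detection at 214 and 280 nm.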

[2] = Resistance to reduction by reduced glutathione (GSH), HPLC; assay type: physicochemical; settings: 10 mM reduced glutathione (GSH); HPLC vs non-reduced peptide
Method in brief: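 Peptide stability under reducing conditions was tested in 10 mM DTT and in 10 mM GSH, with analysis by HPLC.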

## GSPDEYIERAKECCKKQDIQCCLRIFDESKDPNVMLICLFCW [SEQ ID NO: 43]
[1]
  resistance to reduction by DTT (in words): partially resistant
[2]
  resistance to GSH reducing conditions: resistant
